For the assay, the target named is T1, human TIGIT fused to Fc (human, UniProt Q495A1 22-141).
T1 construct: Called a dimeric form of TIGIT; also called human TIGIT-Fc; human dimeric TIGIT-Fc; not shown: Fc
T1 sequence: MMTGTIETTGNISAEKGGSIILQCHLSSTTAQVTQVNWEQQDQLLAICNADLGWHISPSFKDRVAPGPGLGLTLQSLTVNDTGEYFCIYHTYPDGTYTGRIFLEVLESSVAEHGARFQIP
Kind of assay: SPR, human TIGIT-Fc captured on CM5 chip, BA002 Fab in solution, 1:1 model. On the procedure:
Briefly, surface plasmon resonance experiments were performed using a Biacore T200 instrument, and the association rate (Kₐ), dissociation rate (Kd), and dissociation constant (KD) were calculated from each experiment using a 1:1 binding model with Biacore T200 Evaluation Software.
In a similar experiment measuring binding of a monovalent form of BA002 to human TIGIT-Fe, human TIGIT-Fc was captured on flow-cell 2 of a CM5 chip, keeping flow-cell 1 as reference, at a flow rate of 5 μL/min. […] The higher calculated dissociation rate between human TIGIT-Fc and BA002 Fab, relative to the calculated dissociation rate between human TIGIT-Fc and full-length BA002 described above, is consistent with the presence of an avidity effect with the bivalent form of BA002.
For orientation: SPR reads the build-up and loss of mass on a sensor chip optically.

B1: BA002 in Fab format (Fab, V domains shown)
VH: EVQLVQSGAEVEKPGASVKVSCKASGYTFASYGISWVRQAPGQGLEWMGGITPFFNRVDVAEKFQGRVTITADTSTNTVYIELSSLTSEDTAVYYCARDLRRGGVGDAFDIWGRGTLVTVSS
VL: QSALTQPRSVSGSPGQSVTISCTGTSSDVGSHNYVSWYQQHPGKAPQLMIYEVSYRPSEISNRFSGSKSGNTASLTISGLQPEDEADYYCSSYTPSSATVFGAGTKLTVLG
modifications: chain 1 pos 1: glutamate or pyroglutamate (from Glu), written E; chain 2 pos 1: glutamine or pyroglutamate (from Gln), written Q
notes: also called BA002 Fab; monovalent form of BA002
As usually defined, the Kd is the equilibrium constant for the complex coming apart. Low readings indicate a tighter complex, high ones a looser complex. In general, koff refers to the rate constant with which the complex falls apart. Low readings indicate a long-lived complex, high ones a short-lived complex. One may read the kon as a measure of how fast the partners come together. In turn, B1 registered a Kd of 6.8 nM, a koff of 0.019 s⁻¹ and a kon of 2.8e+06 M⁻¹ s⁻¹.

The values above are taken from patent publication US20240141047A1 (AGENUS, published 2024).
